From patent US20110207221

Tests used:
Assay in all cases: cell_activity
[1] = tested on: ZFN 16245 (POU5F1) (synthetic); settings: K562; two ZFN pairs co-transfected, deletion only with both
[2] = tested on: ZFN 11177 (BAK del. B) (synthetic); settings: CHO-K1; BAK deletion B, two ZFN pairs
[3] = tested on: ZFN 10344 (BAK) (synthetic); settings: CHO-K1; BAK deletion, two ZFN pairs
[4] = tested on: ZFN 16248 (POU5F1) (synthetic); settings: K562; two ZFN pairs co-transfected
[5] = tested on: ZFN 16247 (POU5F1) (synthetic); settings: K562; two ZFN pairs co-transfected
[6] = tested on: ZFN 11183 (BAK) (synthetic); settings: CHO-K1; BAK deletion, two ZFN pairs
[7] = tested on: ZFN 10311 (BAK) (synthetic); settings: CHO-K1; BAK deletion, two ZFN pairs
[8] = tested on: ZFN 10317 (BAK del. A) (synthetic); settings: CHO-K1; BAK deletion A, two ZFN pairs
[9] = tested on: ZFN 10342 (BAK) (synthetic); settings: CHO-K1; BAK deletion, two ZFN pairs
[10] = tested on: ZFN 16246 (POU5F1) (synthetic); settings: K562; two ZFN pairs co-transfected

Sequence: AAGCTGGTCTGGTGGCTAGGTAGATCCT (double strand) [POU5F1 site of 16245]
- activity (% cells with deletion) [1]: 4

Sequence: AGGATTAGGAGGATGGGATTTGGCACTG (double strand) [BAK site of 11177]
- activity (% cells with deletion) [2]: 1

Sequence: ATCAGGAAGAGGCTGGGTGTCACAGCGT (double strand) [BAK site of 10344]
- activity (% cells with deletion) [3]: 1

Sequence: ATGAGTCAGTGAACAGGGAATGGGTGAA (double strand) [POU5F1 site of 16248]
- activity (% cells with deletion) [4]: 4

Sequence: ATGTAACAAAGGACTACTCTTCCCCCAG (double strand) [POU5F1 site of 16247]
- activity (% cells with deletion) [5]: 4

Sequence: CACGGGCCCAGGGTGGGGCAGAAAGCCC (double strand) [BAK site of 11183]
- activity (% cells with deletion) [6]: 1

Sequence: CAGCACGGGCCCAGGGTGGGGCAGAAAG (double strand) [BAK site of 10311]
- activity (% cells with deletion) [7]: 1

Sequence: GCCAGGATTAGGAGGATGGGATTTGGCA (double strand) [BAK site of 10317]
- activity (% cells with deletion) [8]: 1

Sequence: GCGGCCAGGCCAAGGCAGACTTTCTGAC (double strand) [BAK site of 10342]
- activity (% cells with deletion) [9]: 1

Sequence: GGGCTCTGGAAGGCCCACTTCAGGGCCT (double strand) [POU5F1 site of 16246]
- activity (% cells with deletion) [10]: 4
